# Laboratory results: patent US20210032352A1 (ANTERA THERAPEUTICS, published 2021)
# T1: human LRP6 ECD, Fc-tagged (human, UniProt O75581 20-1370)
# T1 construct: extracellular domain; Bought; also called LRP co-receptor; not shown: Fc tag of the purchased fusion
# T1 sequence (looked up): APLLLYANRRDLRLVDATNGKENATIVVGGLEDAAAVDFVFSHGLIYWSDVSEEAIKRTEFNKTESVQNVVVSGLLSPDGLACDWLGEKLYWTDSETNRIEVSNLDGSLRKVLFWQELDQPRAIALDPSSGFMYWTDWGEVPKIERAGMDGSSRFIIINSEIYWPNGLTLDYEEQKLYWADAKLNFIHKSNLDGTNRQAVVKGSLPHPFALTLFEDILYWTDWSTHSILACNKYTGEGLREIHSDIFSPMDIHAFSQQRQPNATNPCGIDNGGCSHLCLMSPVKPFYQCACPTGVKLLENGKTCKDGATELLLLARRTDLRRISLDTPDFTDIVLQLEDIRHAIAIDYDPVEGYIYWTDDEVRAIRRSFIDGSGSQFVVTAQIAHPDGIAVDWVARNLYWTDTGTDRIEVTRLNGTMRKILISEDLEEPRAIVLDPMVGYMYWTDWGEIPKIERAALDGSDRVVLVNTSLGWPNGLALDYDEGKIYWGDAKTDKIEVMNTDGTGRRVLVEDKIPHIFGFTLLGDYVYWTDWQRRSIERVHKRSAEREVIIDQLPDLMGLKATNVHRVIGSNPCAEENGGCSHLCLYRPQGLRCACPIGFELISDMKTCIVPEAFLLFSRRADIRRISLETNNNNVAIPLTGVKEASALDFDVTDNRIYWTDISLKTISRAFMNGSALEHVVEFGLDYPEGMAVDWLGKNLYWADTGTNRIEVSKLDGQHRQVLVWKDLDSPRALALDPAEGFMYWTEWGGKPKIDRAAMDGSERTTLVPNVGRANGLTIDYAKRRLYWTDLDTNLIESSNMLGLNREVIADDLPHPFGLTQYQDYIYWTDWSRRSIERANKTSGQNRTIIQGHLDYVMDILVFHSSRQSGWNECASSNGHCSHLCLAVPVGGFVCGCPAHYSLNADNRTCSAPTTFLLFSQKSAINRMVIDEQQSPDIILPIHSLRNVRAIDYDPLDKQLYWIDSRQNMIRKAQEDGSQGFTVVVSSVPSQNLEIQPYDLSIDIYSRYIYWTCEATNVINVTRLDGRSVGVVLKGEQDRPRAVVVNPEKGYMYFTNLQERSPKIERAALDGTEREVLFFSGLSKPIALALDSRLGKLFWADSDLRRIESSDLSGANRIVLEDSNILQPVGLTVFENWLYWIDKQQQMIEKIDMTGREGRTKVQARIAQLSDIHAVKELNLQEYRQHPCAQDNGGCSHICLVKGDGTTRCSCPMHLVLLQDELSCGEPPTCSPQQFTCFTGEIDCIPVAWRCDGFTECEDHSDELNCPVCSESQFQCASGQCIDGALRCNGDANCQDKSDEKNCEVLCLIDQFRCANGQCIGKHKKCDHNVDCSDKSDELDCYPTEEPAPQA
# B1: F^P*+P*-L6^1+3 (bispecific antibody)
# knob: DIQMTQSPSSLSASVGDRVTITCRASQSVSSAVAWYQQKPGKAPKLLIYSASSLYSGVPSRFSGSRSGTDFTLTISSLQPEDFATYYCQQGVYLFTFGQGTKVEIKGTTAASGSSGGSSSGAEVQLVESGGGLVQPGGSLRLSCAASGFNIGSSSIHWVRQAPGKGLEWVASIYSAFASTSYADSVKGRFTISADTSKNTAYLQMNSLRAEDTAVYYCARYHFPFGFALDYWGQGTLVTVSSLEDKTHTKVEPKTSDKTHTCPPCPAPELLGGPSVFLFPPKPKDTLMISRTPEVTCVVVDVSHEDPEVKFNWYVDGVEVHNAKTKPREEQYNSTYRVVSVLTVLHQDWLNGKEYKCKVSNKALPAPIEKTISKAKGQPREPMVFDLPPSREEMTKNQVSLWCMVKGFYPSDIAVEWESNGQPENNYKTTPPVLDSDGSFFLYSKLTVDKSRWQQGNVFSCSVMHEALHNHYTQKSLSLSPGKSGSETPGTSESATPESGGGEVQLVESGGGLVQPGGSLRLSCAASGFNISYSSIHWVRQAPGKGLEWVAYISSYYGYTYYADSVKGRFTISADTSKNTAYLQMNSLRAEDTAVYYCARAHYFPWAGAMDYWGQGTLVTVSSGGGGSDIQMTQSPSSLSASVGDRVTITCRASQSVSSAVAWYQQKPGKAPKLLIYSASSLYSGVPSRFSGSRSGTDFTLTISSLQPEDFATYYCQQYYWPITFGQGTKVEIK
# hole: DIQMTQSPSSLSASVGDRVTITCRASQSVSSAVAWYQQKPGKAPKLLIYSASSLYSGVPSRFSGSRSGTDFTLTISSLQPEDFATYYCQQGVYLFTFGQGTKVEIKGTTAASGSSGGSSSGAEVQLVESGGGLVQPGGSLRLSCAASGFNIGSSSIHWVRQAPGKGLEWVASIYSAFASTSYADSVKGRFTISADTSKNTAYLQMNSLRAEDTAVYYCARYHFPFGFALDYWGQGTLVTVSSLEDKTHTKVEPKSSDKTHNCPPCPAPELLGGPSVFLFPPKPKDTLMISRTPEVTCVVVDVSHEDPEVKFNWYVDGVEVHNAKTKPREEQYNSTYRVVSVLTVLHQDWLNGKEYKCKVSNKALPAPIEKTISKAKGQPREPQVYTLPPIRELMTSNQVSLSCAVKGFYPSDIAVEWESNGQPENNYKTTPPVLDSDGSFFLVSKLTVDKSRWQQGNVFSCSVMHEALHNHYTQKSLSLSPGKSGSETPGTSESATPESGGGEVQLVESGGGLVQPGGSLRLSCAASGFNISSYYIHWVRQAPGKGLEWVASIYSSYGYTSYADSVKGRFTISADTSKNTAYLQMNSLRAEDTAVYYCARTVRGSKKPYFSGWAMDYWGQGTLVTVSSGGGGSDIQMTQSPSSLSASVGDRVTITCRASQSVSSAVAWYQQKPGKAPKLLIYSASSLYSGVPSRFSGSRSGTDFTLTISSLQPEDFATYYCQQYSWGPFTFGQGTKVEIK
# How the values were obtained:
# Assay in all cases: kinetic table (called BLI in paragraph 35); quantity name and unit not printed in the table: KD in M follows from FIG. 12A
# [1] = biological target: T1, human LRP6 ECD, Fc-tagged
# FZD2 CRD, Fc-tagged = biological target: T2, FZD2 CRD, Fc-tagged (human, UniProt Q14332 24-190)
# T2 construct: domain: CRD; Bought; not shown: Fc tag of the purchased fusion
# FZD1 CRD, Fc-tagged = biological target: T3, FZD1 CRD, Fc-tagged (human, UniProt Q9UP38 70-250)
# T3 construct: domain: CRD; Bought; not shown: Fc tag of the purchased fusion
# FZD7 CRD, Fc-tagged = FZD7 CRD, Fc-tagged (human, UniProt O75084 33-185)
# T3 sequence (Q9UP38 70-250): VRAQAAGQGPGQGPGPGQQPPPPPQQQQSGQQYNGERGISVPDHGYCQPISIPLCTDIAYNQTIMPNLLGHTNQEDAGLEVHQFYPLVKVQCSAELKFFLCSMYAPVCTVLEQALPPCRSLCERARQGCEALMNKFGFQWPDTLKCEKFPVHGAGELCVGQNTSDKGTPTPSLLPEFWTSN
binder,measurement,setting,value
B1,Kd,[1],8200 pM
same,Kd,"FZD2 CRD, Fc-tagged",84 pM
same,Kd,"FZD1 CRD, Fc-tagged",90 pM
same,Kd,"FZD7 CRD, Fc-tagged",27 pM
